Laboratory results from the supplement of paper PMC7877785.
± gives the uncertainty stated by the source.

Experiment: self-splicing fitness, log relative to wild type (ln ratio); higher = more splicing; Tetrahymena group I intron in knt gene, E. coli kanamycin selection, DiMSum; sequences stand for … in CUCUCU…GGAGGGAAAAGUUAUCAGGCAUGCACCUGGUAGCUAGUCUUUAAACCAAUAGAUUGCAUCGGUUUAAAAGGCAAGACCGUCAAAUUGCGGGAAAGGGGUCAACAGCCGUUCAGUACCAAGUCUCAGGGGAAACUUUGAGAUGGCCUUGCAAAGGGUAUGGUAAUAAGCUGACGGACAUGGUCCUAACCACGCAGCCAAGUCCUAAGUCAACAGAUCUUCUGUUGAUAUGGAUGCAGUUCACAGACUAAAUGUCGGUCGGGGAAGAUGUAUUCUUCUCAUAAGAUAUAGUCGGACCUCUCCUUAAUGGGAGCUAGCGGAUGAAGUGAUGCAACACUGGAGCCGCUGGGAACUAAUUUGUAUGCGAAAGUAUAUUGAUUAGUUUUGGAGUACUCGUGGUCG
In short: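 The eight P1ex-region nucleotides of an intron in the knt kanamycin-resistance gene on pET-22b(+) were all randomised and the library put into E. coli BL21(DE3). Six replicate transformations were grown overnight at 37°C or 30°C on LB agar with or without 25 μg/mL kanamycin, together with 100 μg/mL carbenicillin, 50 μM IPTG and 0.2% rhamnose. Colonies were pooled and amplicon-sequenced on an Illumina HiSeq 2500. Fitness from DiMSum is the error-weighted combination of wild-type-normalised replicate fold changes, kanamycin over none.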

Sequence	self-splicing fitness (ln) (30 °C)	self-splicing fitness (ln) (37 °C)
CAAUAGCAAUAUUACGUUCG	-0.45 ± 0.057	0.556 ± 0.081
AAUAAGCAAUAUUACGCGCA	-0.438 ± 0.081	-0.0417 ± 0.11
AAGAAGCAAUAUUACGGCCG	-1.47 ± 0.12	-0.0374 ± 0.15
CCUUAGCAAUAUUACGUACG	-2.45 ± 0.22	-2.2 ± 0.29
GGUUAGCAAUAUUACGCACA	-0.431 ± 0.1	-0.339 ± 0.14
UAGAAGCAAUAUUACGCAGU	-4.08 ± 0.29	-2.07 ± 0.25
ACUCAGCAAUAUUACGUCUG	-3.57 ± 0.14	-2.74 ± 0.16
AAAUAGCAAUAUUACGCGUU	-2.16 ± 0.087	-1.22 ± 0.092
AAAGAGCAAUAUUACGGAGC	-2.8 ± 0.39	
ACUGAGCAAUAUUACGCCUU	-1.55 ± 0.2	-0.418 ± 0.24
GAGGAGCAAUAUUACGACAA	-2.14 ± 0.24	-1.1 ± 0.27
AGAAAGCAAUAUUACGCUUG	-2.37 ± 0.15	-1.73 ± 0.18
CACCAGCAAUAUUACGUGCU	-3.4 ± 0.11	-2.7 ± 0.15
UUACAGCAAUAUUACGACGU	-3.61 ± 0.31	-3.23 ± 0.4
UGUUAGCAAUAUUACGCGUU	-1.38 ± 0.1	-1.01 ± 0.11
CGGUAGCAAUAUUACGUCGC	-3.35 ± 0.27	-2.14 ± 0.22
AGUUAGCAAUAUUACGAAGG	-4.03 ± 0.22	-3.4 ± 0.28
GAGAAGCAAUAUUACGUAUC	-3.78 ± 0.37	-3.21 ± 0.35
GGGUAGCAAUAUUACGCCAU	-2.4 ± 0.26	-1.32 ± 0.19
CCUUAGCAAUAUUACGCUCU	-3.8 ± 0.43	-0.731 ± 0.38
AGAUAGCAAUAUUACGAAUG	-2.62 ± 0.13	-1.32 ± 0.11
UAAGAGCAAUAUUACGAUGG	-3.51 ± 0.21	-1.68 ± 0.16
GCCGAGCAAUAUUACGCGUG	-2.05 ± 0.088	-1.32 ± 0.091
AGUCAGCAAUAUUACGACAC	-0.0897 ± 0.065	-0.358 ± 0.084
GAGGAGCAAUAUUACGAUCA	-2.5 ± 0.22	-1.59 ± 0.19
ACCCAGCAAUAUUACGGAAG	-2.49 ± 0.091	-1.02 ± 0.1

Sequence	self-splicing fitness (ln) (30 °C)	self-splicing fitness (ln) (37 °C)
CGCCAGCAAUAUUACGUCGG	-3.04 ± 0.21	-1.91 ± 0.21
GUGCAGCAAUAUUACGUAGU	-1.37 ± 0.083	-0.784 ± 0.12
AUCAAGCAAUAUUACGGAUA	-2.42 ± 0.16	-1.83 ± 0.15
AUUUAGCAAUAUUACGCUGA	-1.32 ± 0.19	-2.44 ± 0.3
CGACAGCAAUAUUACGGGCC	-2.97 ± 0.17	-2.43 ± 0.23
UAGGAGCAAUAUUACGCCAU	-3.74 ± 0.43	-2.72 ± 0.48
GAUCAGCAAUAUUACGCUGG	-3.48 ± 0.21	-3.18 ± 0.27
CAUGAGCAAUAUUACGUGGA	-3.96 ± 0.47	-3 ± 0.38
UCUGAGCAAUAUUACGCGUC		-2.49 ± 0.48
AAGGAGCAAUAUUACGCCCU	-1.87 ± 0.35	-1.91 ± 0.43
UUCUAGCAAUAUUACGCUGG	-4.38 ± 0.46	
AUGGAGCAAUAUUACGCGGA	-2.73 ± 0.29	-1.34 ± 0.22
UUCUAGCAAUAUUACGUAAU	-3.08 ± 0.15	-1.88 ± 0.17
GAUAAGCAAUAUUACGUAUC	-3.9 ± 0.18	-2.67 ± 0.27
UGAAAGCAAUAUUACGGCUU	-1.62 ± 0.13	-1.81 ± 0.2
GGCGAGCAAUAUUACGCACA	-0.586 ± 0.082	-0.225 ± 0.12
UAGAAGCAAUAUUACGCACG	-0.11 ± 0.23	-0.0394 ± 0.23
GUUCAGCAAUAUUACGUCCG	0.0188 ± 0.43	
GGAGAGCAAUAUUACGACGC	-0.0524 ± 0.081	-0.0426 ± 0.092
UGACAGCAAUAUUACGCGAA	-1.32 ± 0.12	-0.476 ± 0.14
GCUUAGCAAUAUUACGUACG	-1.07 ± 0.065	0.0666 ± 0.089
UCUCAGCAAUAUUACGCGAU	-4.5 ± 0.34	-2.1 ± 0.36
GCACAGCAAUAUUACGAAUA	-1.42 ± 0.13	-1.09 ± 0.16
CCGGAGCAAUAUUACGGCAU	-2.81 ± 0.22	-1.55 ± 0.19
CUGAAGCAAUAUUACGCAGA	-3.67 ± 0.19	-2.71 ± 0.21
ACUCAGCAAUAUUACGCAAC	-2.14 ± 0.17	-2.43 ± 0.26

Sequence	self-splicing fitness (ln) (30 °C)	self-splicing fitness (ln) (37 °C)
AUUGAGCAAUAUUACGACUU	-1.5 ± 0.12	-0.31 ± 0.13
CGGUAGCAAUAUUACGUUCU	-0.482 ± 0.087	-0.439 ± 0.1
UUUGAGCAAUAUUACGGUCC	-3.88 ± 0.28	-1.8 ± 0.23
GGGCAGCAAUAUUACGUUGG	-3.05 ± 0.16	-1.65 ± 0.15
UACGAGCAAUAUUACGCAGA		-2.33 ± 0.31
GUCCAGCAAUAUUACGUCAC	-2.41 ± 0.14	-0.6 ± 0.13
UUGUAGCAAUAUUACGUGCA	-2.4 ± 0.15	-1.14 ± 0.18
GCGCAGCAAUAUUACGUAGA	-2.28 ± 0.1	-0.72 ± 0.099
UCCAAGCAAUAUUACGUAAC	-3.57 ± 0.17	-1.41 ± 0.15
AGGAAGCAAUAUUACGGAAU	-2.88 ± 0.22	-2.14 ± 0.3
GAACAGCAAUAUUACGUUUG	-2.2 ± 0.067	-0.632 ± 0.075
ACCCAGCAAUAUUACGGAGA	-0.451 ± 0.048	0.122 ± 0.063
CCACAGCAAUAUUACGACGG	-3.63 ± 0.12	-1.63 ± 0.1
CCAUAGCAAUAUUACGUCAA	-4.82 ± 0.41	-0.857 ± 0.17
GUCAAGCAAUAUUACGGAAG	-3.05 ± 0.15	-1.68 ± 0.17
GCUAAGCAAUAUUACGUUGG	-3.67 ± 0.15	-1.79 ± 0.12
GCAAAGCAAUAUUACGCGGC	-3.95 ± 0.21	-2.43 ± 0.19
GAGAAGCAAUAUUACGGUUG	-2.18 ± 0.1	-1.99 ± 0.14
GGGCAGCAAUAUUACGAUCC	-1.89 ± 0.42	-0.374 ± 0.37
CCCAAGCAAUAUUACGUAUA	-2.91 ± 0.23	-3.24 ± 0.23
UCCUAGCAAUAUUACGGGUU	-2.26 ± 0.13	-1.78 ± 0.15
AGAAAGCAAUAUUACGCAAA	-3.28 ± 0.26	-0.836 ± 0.13
AAUUAGCAAUAUUACGGCUA	-0.905 ± 0.17	-0.685 ± 0.22
UUCUAGCAAUAUUACGUGCU	-3.37 ± 0.24	-2.11 ± 0.24
